Assay [1] deals with human SRC SH2 domain (Gln147-Lys252) C188A (human) (UniProt P12931). Description: ITC; peptide (400 uM) titrated into SRC SH2 (40 uM) in the cell, 25 C, MicroCal PEAQ-ITC Automated; SH2 domain pretreated with 0.1 mM PV (oxidised). In general terms: ITC needs no label: the signal is the heat of the interaction.
Assay [2] shares this target. Kind of assay: ITC; peptide (400 uM) titrated into SRC SH2 (40 uM) in the cell, 25 C, MicroCal PEAQ-ITC Automated; SH2 domain pretreated with 1 mM TCEP (reducing conditions).

With “SRC C-terminal phosphopeptide (spanning pY530)”, in assay [1], the fold lower affinity against reducing conditions was determined as 3.5 fold. The fold increase in affinity against SH2 WT in assay [2] is 5 fold.

For the origin of these results see paper PMC7619190.
